Test results as given in article PMC4373793.
Several values for one entry are separate records, joined by “and”; a condition that tells them apart may be missing. Identical values can stand only once.

Legend:
[1] = molecular target: Streptococcal surface enolase (SEN), wild-type, group A Streptococcus (Streptococcus pyogenes) (Streptococcus pyogenes (group A Streptococcus)) (UniProt P69949); assay: crystal structure; hanging drop, 1-3.5 M sodium/potassium phosphate pH 5-7.5, 2% PEG 400; space group P4; octamer = tetramer of dimers
[2] = molecular target: Human Glu-plasminogen (circulating form of human plasminogen) (human); assay: ELISA; plate coated with serial dilutions of Glu-plasminogen (carbonate buffer pH 9.6); wells incubated with 5 ug wild-type or mutant SEN; apparent KD, one-site specific binding
[3] = molecular target: Streptococcal surface enolase (SEN), wild-type, group A Streptococcus (Streptococcus pyogenes) (Streptococcus pyogenes (group A Streptococcus)) (UniProt P69949); assay: native MS; Superdex-200 in 200 mM NH4OAc pH 6.8, peak fractions pooled, Synapt HDMS under conditions that preserve non-covalent interactions; single peak of wild type and K312A, elution peak 1 of K362A
[4] = molecular target: Human Glu-plasminogen (circulating form of human plasminogen) (human); assay: SPR; BIAcore 3000; Glu-plasminogen immobilised on a CM5 chip (~10,000 RU; also a lower-density surface ~1,000 RU); 100 nM SEN injected 500 s at room temperature in 10 mM HEPES pH 7.4, 0.15 M NaCl, 3 mM EDTA, 0.005% P20, 30 ul/min; kinetic models could not be fitted, assessed qualitatively
[5] = molecular target: Streptococcal surface enolase mutant SEN^K362A (Streptococcus pyogenes (group A Streptococcus)) (UniProt P69949); assay: crystal structure; hanging drop, 1-3.5 M sodium/potassium phosphate pH 5-7.5, 2% PEG 400; space group P4; octamer = tetramer of dimers
[6] = molecular target: Streptococcal surface enolase mutant SEN^K362A (Streptococcus pyogenes (group A Streptococcus)) (UniProt P69949); assay: native MS; Superdex-200 in 200 mM NH4OAc pH 6.8, peak fractions pooled, Synapt HDMS under conditions that preserve non-covalent interactions; single peak of wild type and K312A, elution peak 1 of K362A
[7] = molecular target: Streptococcal surface enolase mutant SEN^K312A (Streptococcus pyogenes (group A Streptococcus)) (UniProt P69949); assay: crystal structure; hanging drop, 1-3.5 M sodium/potassium phosphate pH 5-7.5, 2% PEG 400; space group P4; octamer = tetramer of dimers
[8] = molecular target: Streptococcal surface enolase mutant SEN^K312A (Streptococcus pyogenes (group A Streptococcus)) (UniProt P69949); assay: native MS; Superdex-200 in 200 mM NH4OAc pH 6.8, peak fractions pooled, Synapt HDMS under conditions that preserve non-covalent interactions; single peak of wild type and K312A, elution peak 1 of K362A

| Substance | stoichiometry N [1] | Kd [2] | stoichiometry N [3] | percent increase in plasminogen binding (against wild-type SEN) [4] | stoichiometry N [5] | stoichiometry N [6] | stoichiometry N [7] | stoichiometry N [8] |
| --- | --- | --- | --- | --- | --- | --- | --- | --- |
| Streptococcal surface enolase (SEN), wild-type, group A Streptococcus (Streptococcus pyogenes) (from UniProt P69949 1-435) (enzyme) | 8 | 0.0141 µM | 8 | – | – | – | – | – |
| Streptococcal surface enolase mutant SEN^K362A (from UniProt P69949 1-435) (enzyme) | – | 0.00185 µM | – | 341% | 8 | 8 and 7 | – | – |
| Streptococcal surface enolase mutant SEN^K312A (from UniProt P69949 1-435) (enzyme) | – | 0.0193 µM | – | 196% | – | – | 8 | 8 |
